Legend:
[1] = tested on: Pseudomonas aeruginosa PAO1; test: Antimicrobial spread-plate (CFU) killing assay, P. aeruginosa; type: cell-based
Experimental: To determine whether the above microbicidal concentrations exert a permeabilizing effect on fungal and bacterial membranes, the influx of the fluorescent nucleic acid-binding dye propidium iodide (PI) in cells incubated with the peptides was assessed. In cells, dye uptake reflects membrane permeabilization, as PI itself cannot permeate through an intact phospholipid bilayer. […] To select an antimicrobial but non-permeabilizing concentration of each peptide for further assays, we defined as a non-permeabilizing inhibitory concentration (NPIC) the antimicrobial inhibitory concentration (≤10% viable cells) that permeabilized ≤ 10% of cells incubated (90 min at 37 °C) in buffer solution.
Microbial susceptibility to the peptides was determined in a spread-plate assay as described previously. Briefly, cell suspensions (10^6 cells/mL) in Tris buffer (10 mM Tris-HCl, pH 7.4) were incubated for 90 min at 37 °C with 2-fold serial peptide dilutions. Peptide concentrations ranged from 0 to 2 μM. After incubation, the number of viable cells was determined by plating aliquots (100 μL) in duplicate on plates (SDA for C. albicans, TSA for P. aeruginosa, and M17G agarified medium for L. lactis) that had been dried for 30 min at room temperature in a laminar flow hood. Plates were incubated for 24–48 h at 30 °C (C. albicans and L. lactis) or 24 h at 37 °C (P. aeruginosa). Dilutions yielding 50–200 colonies were counted. Cell viability values, expressed as colony-forming units (CFUs), were calculated relative to the incubation without added peptides and represent the means ± standard deviation (SD) from duplicates of three independent experiments. For inhibition assays, unless otherwise noted, cell suspensions were preincubated (15 min at 37 °C) with the appropriate inhibitor prior to the addition of peptides, but the inhibitor was present throughout the incubation period with the peptide (90 min at 37 °C). Other specific experimental conditions are described as appropriate. […]

C. albicans cells = test: Membrane potential monitoring with DiBAC4(3), flow cytometry; type: cell-based, Candida albicans; conditions: peptides at NPIC, hLf 5 μM, BM2 0.25 μM; DiBAC4(3) 1 µg/mL
Experimental: The membrane potential-sensitive probe DiBAC4(3) was used to monitor the transmembrane electrical potential of C. albicans cells as previously described with slight modifications. Briefly, cells were harvested from mid-log phase cultures via centrifugation and suspended in Tris buffer. The cell suspension was adjusted to 10^6 cells/mL and then incubated with DiBAC4(3) at a final concentration of 1 µg/mL for 30 min. Fluorescence was measured using a CytoFLEX S flow cytometer (Beckman Coulter) with excitation at 561 nm and emission at 690/50 nm. For each treatment, 5000 events were counted per experiment with an exposure time of 1000 ms. Results were analyzed using CytExpert 2.1 Acquisition software. As positive controls, human lactoferrin and BM2 peptide were used. Three independent experiments were performed and data are expressed as means ± SD.

Pma1p H^+-ATPase = conditions: Table 2; no reference given
Experimental: A whole-cell proton transport assay was used to evaluate the possible inhibition of the fungal Pma1p H^+-ATPase by defensins.
To measure proton pumping from Pma1p H^+-ATPase activity, a glucose-induced acid extrusion assay was performed as previously described with modifications. Briefly, cultures of C. albicans cells were grown to mid-log phase in SDB medium and washed twice in 100 mM Tris-HCl (pH 8.0). The cells were then resuspended in 50 mM KCl and maintained for 18 h at 4 °C to reduce metabolic activity to a minimum (starvation conditions). To determine external acidification, starved cells (approximately 10^7 cells/mL) were incubated for 15 min at 37 °C in the presence or absence of the defensins (2 x NPIC). Cells incubated with 20 µM human lactoferrin or 0.5 µM BM2 peptide were used as positive controls. The initial pH of the cell suspension was adjusted to approximately pH 6.8 with HCl, and glucose (final concentration of 2.5 mM) was immediately added to the cell suspension. The pH of the medium was recorded at 5-min intervals for 20 min using a SevenMulti S50-K pH meter (Mettler-Toledo, Greifensee, Switzerland) with a calibrated electrode (InLab 413, Mettler-Toledo) under constant stirring. Each experiment was repeated three times in an independent manner.

[2] = set-up: method as in 19 sources, ref 24; PMID 3290255; doi:10.1172/JCI113527; 24. Lehrer R.I. Ganz T. Szklarek D. Selsted M.E. Modulation of the in vitro candidacidal activity of human neutrophil defensins by target cell metabolism and divalent cations J. Clin. Invest. 1988 81 || [47]; PMID 11083633; doi:10.1128/AAC.44.12.3310-3316.2000; 47. Edgerton M. Koshlukova S.E. Araujo M.W. Patel R.C. Dong J. Bruenn J.A. Salivary histatin 5 and human neutrophil defensin 1 kill Candida albicans via shared pathways Antimicrob. Agents Chemother. 2 ||| ref 20 = [20]; PMID 17074797; doi:10.1128/AAC.00478-06; 20. Vylkova S. Nayyar N. Li W. Edgerton M. Human beta-defensins kill Candida albicans in an energy-dependent and salt-sensitive manner without causing membrane disruption Antimicrob. Agents Chemother. ||| ref 24, 62 (HNP-1); 62, 63 (HNP-4); 20 (hBD-2); 12, 20 (hBD-3); 34, 35, 64 cidal and 65, 66 static (lactoferrin) ||| ref 26 (HNP-1); 12 (HNP-4); 11 (hBD-2, hBD-3); 43, 67 (lactoferrin) ||| ref 14 (HNP-1); 23 (HNP-4); Yes 11, 13 / No 20 (hBD-2); No 20 / Yes 11 (hBD-3); 31, 34, 42 (lactoferrin) ||| ...; conditions: Table 2, cited from earlier work

B1: human lactoferrin: Recombinant human apo-lactoferrin (hLf), 691 amino acid γ-core protein that inhibits microbial PM H+-ATPases; control (protein, UniProt P02788 20-710, looked up)
Lactotransferrin: GRRRSVQWCAVSQPEATKCFQWQRNMRKVRGPPVSCIKRDSPIQCIQAIAENRADAVTLDGGFIYEAGLAPYKLRPVAAEVYGTERQPRTHYYAVAVVKKGGSFQLNELQGLKSCHTGLRRTAGWNVPIGTLRPFLNWTGPPEPIEAAVARFFSASCVPGADKGQFPNLCRLCAGTGENKCAFSSQEPYFSYSGAFKCLRDGAGDVAFIRESTVFEDLSDEAERDEYELLCPDNTRKPVDKFKDCHLARVPSHAVVARSVNGKEDAIWNLLRQAQEKFGKDKSPKFQLFGSPSGQKDLLFKDSAIGFSRVPPRIDSGLYLGSGYFTAIQNLRKSEEEVAARRARVVWCAVGEQELRKCNQWSGLSEGSVTCSSASTTEDCIALVLKGEADAMSLDGGYVYTAGKCGLVPVLAENYKSQQSSDPDPNCVDRPVEGYLAVAVVRRSDTSLTWNSVKGKKSCHTAVDRTAGWNIPMGLLFNQTGSCKFDEYFSQSCAPGSDPRSNLCALCIGDEQGENKCVPNSNERYYGYTGAFRCLAENAGDVAFVKDVTVLQNTDGNNNEAWAKDLKLADFALLCLDGKRKPVTEARSCHLAMAPNHAVVSRMDKVERLKQVLLHQQAKFGRNGSDCPDKFCLFQSETKNLLFNDNTECLARLHGKTTYEKYLGPQYVAGITNLKKCSTSPLLEACEFLRK
modifications: apo form
notes: control
**Q.** Which results are given for B1?
**A.** effect of high extracellular K+ on pseudomonacidal activity ([1]; 50 mM KCl, defensins at NPIC, hLf 1 μM, colistin 4 μg/mL): decreased; non-permeabilizing inhibitory concentration (NPIC), P. aeruginosa ([1]; antimicrobial concentration (≤10% viable cells) that permeabilized ≤10% of cells, 10^6 cells/mL, Tris buffer pH 7.4, 90 min at 37 °C, from Figure 1 data, duplicates of three experiments): 1 µM; effect of CCCP on bactericidal activity, P. aeruginosa ([1]; preincubated 15 min at 37 °C with 50 µM CCCP at pH 7.4, peptides at NPIC): slightly reduced; transmembrane electrical potential (DiBAC4(3) fluorescence) (C. albicans cells): increase in DiBAC4(3) fluorescence; Inhibition of H^+-extrusion (yeast) (Pma1p H^+-ATPase): Yes; Cell death inhibitors, intracellular: Azide ([2]; 24 (HNP-1), 20 (hBD-2, hBD-3), 34 (lactoferrin)): No; Antimicrobial range ([2]; Gm+ Gram-positive bacteria, Gm− Gram-negative bacteria, F fungi, V viruses, P protozoa, no reference given): Gm +,Gm −,F,V,P; Cell death inhibitors, extracellular: Tok1p inhibitors (TEA) [2]: Yes; Cell death inhibitors, intracellular: Oligomycin A [2]: Yes; Cell death inhibitors, intracellular: Piericidin A [2]: Yes; Partial K^+-efflux [2]: Yes; Membrane permeabilization ([2]; ref 14 (HNP-1), 23 (HNP-4), Yes 11, 13 / No 20 (hBD-2), No 20 / Yes 11 (hBD-3), 31, 34, 42 (lactoferrin)): No; Cell death inhibitors, extracellular: Ca^2+ or Mg^2+ ([2]; ref 24 (HNP-1), 20 (hBD-2, hBD-3), 43 (lactoferrin)): Yes; Cell death inhibitors, intracellular: CCCP or DNP ([2]; ref 24 (HNP-1), 34 (lactoferrin)): Yes; Cell death inhibitors, extracellular: Anoxia ([2]; ref 24 (HNP-1), 34, 35 (lactoferrin)): Yes; Membrane depolarization ([2]; ref 26 (HNP-1), 12 (HNP-4), 11 (hBD-2, hBD-3), 43, 67 (lactoferrin)): Yes; ATP increment ([2]; ref 47 (HNP-1), 35 (lactoferrin)): Yes; Cell death inhibitors, extracellular: K^+ or Na^+ ([2]; ref 68 (HNP-1), 69 (HNP-4), 20 (hBD-2), No 11, 12 / Yes 20 (hBD-3), 31, 36, 43 (lactoferrin)): Yes
